Test results as given in patent US20260274985A1 (MYTHIC THERAPEUTICS, published 2026).

The binders below were run against T1, Human TROP2 Protein, His Tag (Acro Biosystems) (human, UniProt P09758 27-274) (assay: BLI (Octet)).
T1 construct: not shown: His tag
T1 sequence (looked up): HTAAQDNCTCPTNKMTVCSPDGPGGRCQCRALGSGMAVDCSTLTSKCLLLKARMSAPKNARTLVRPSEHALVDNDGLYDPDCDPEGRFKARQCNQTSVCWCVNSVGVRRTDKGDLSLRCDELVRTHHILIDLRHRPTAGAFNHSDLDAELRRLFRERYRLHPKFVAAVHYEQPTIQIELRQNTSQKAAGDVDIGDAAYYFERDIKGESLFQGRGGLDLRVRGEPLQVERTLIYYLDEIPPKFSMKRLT

Row | Binder | binding result
1 | MYT12390 (antibody, V domains shown, datopotamab VL 28, 89 substituted) VH: QVQLVQSGAEVKKPGASVKVSCKASGYTFTTAGMQWVRQAPGQGLEWMGWINTHSGVPKYAEDFKGRVTISADTSTSTAYLQLSSLKSEDTAVYYCARSGFGSSYWYFDVWGQGTLVTVSS VL: DIQMTQSPSSLSASVGDRVTITCKASQHVSTAVAWYQQKPGKAPKLLIYSASYRYTGVPSRFSGSGSGTDFTLTISSLQPEDFAVYYCHQHYITPLTFGQGTKLEIK | no binding (tested: 50 nM)
2 | MYT12391 (antibody, V domains shown, datopotamab VL 28, 92 substituted) VH: QVQLVQSGAEVKKPGASVKVSCKASGYTFTTAGMQWVRQAPGQGLEWMGWINTHSGVPKYAEDFKGRVTISADTSTSTAYLQLSSLKSEDTAVYYCARSGFGSSYWYFDVWGQGTLVTVSS VL: DIQMTQSPSSLSASVGDRVTITCKASQHVSTAVAWYQQKPGKAPKLLIYSASYRYTGVPSRFSGSGSGTDFTLTISSLQPEDFAVYYCQQHHITPLTFGQGTKLEIK | no binding (tested: 50 nM)
3 | MYT12396 (antibody, V domains shown, datopotamab VL 52, 92 substituted) VH: QVQLVQSGAEVKKPGASVKVSCKASGYTFTTAGMQWVRQAPGQGLEWMGWINTHSGVPKYAEDFKGRVTISADTSTSTAYLQLSSLKSEDTAVYYCARSGFGSSYWYFDVWGQGTLVTVSS VL: DIQMTQSPSSLSASVGDRVTITCKASQDVSTAVAWYQQKPGKAPKLLIYSAHYRYTGVPSRFSGSGSGTDFTLTISSLQPEDFAVYYCQQHHITPLTFGQGTKLEIK | no binding (tested: 50 nM)
4 | MYT12403 (antibody, V domains shown, datopotamab VL 28, 89, 92 substituted) VH: QVQLVQSGAEVKKPGASVKVSCKASGYTFTTAGMQWVRQAPGQGLEWMGWINTHSGVPKYAEDFKGRVTISADTSTSTAYLQLSSLKSEDTAVYYCARSGFGSSYWYFDVWGQGTLVTVSS VL: DIQMTQSPSSLSASVGDRVTITCKASQHVSTAVAWYQQKPGKAPKLLIYSASYRYTGVPSRFSGSGSGTDFTLTISSLQPEDFAVYYCHQHHITPLTFGQGTKLEIK | no binding (tested: 50 nM)
5 | MYT12400 (antibody, V domains shown, datopotamab VL 28, 51, 92 substituted) VH: QVQLVQSGAEVKKPGASVKVSCKASGYTFTTAGMQWVRQAPGQGLEWMGWINTHSGVPKYAEDFKGRVTISADTSTSTAYLQLSSLKSEDTAVYYCARSGFGSSYWYFDVWGQGTLVTVSS VL: DIQMTQSPSSLSASVGDRVTITCKASQHVSTAVAWYQQKPGKAPKLLIYSHSYRYTGVPSRFSGSGSGTDFTLTISSLQPEDFAVYYCQQHHITPLTFGQGTKLEIK | no binding (tested: 50 nM)
6 | MYT12394 (antibody, V domains shown, datopotamab VL 51, 92 substituted) VH: QVQLVQSGAEVKKPGASVKVSCKASGYTFTTAGMQWVRQAPGQGLEWMGWINTHSGVPKYAEDFKGRVTISADTSTSTAYLQLSSLKSEDTAVYYCARSGFGSSYWYFDVWGQGTLVTVSS VL: DIQMTQSPSSLSASVGDRVTITCKASQDVSTAVAWYQQKPGKAPKLLIYSHSYRYTGVPSRFSGSGSGTDFTLTISSLQPEDFAVYYCQQHHITPLTFGQGTKLEIK | no binding (tested: 50 nM)
7 | MYT12401 (antibody, V domains shown, datopotamab VL 28, 52, 89 substituted) VH: QVQLVQSGAEVKKPGASVKVSCKASGYTFTTAGMQWVRQAPGQGLEWMGWINTHSGVPKYAEDFKGRVTISADTSTSTAYLQLSSLKSEDTAVYYCARSGFGSSYWYFDVWGQGTLVTVSS VL: DIQMTQSPSSLSASVGDRVTITCKASQHVSTAVAWYQQKPGKAPKLLIYSAHYRYTGVPSRFSGSGSGTDFTLTISSLQPEDFAVYYCHQHYITPLTFGQGTKLEIK | no binding (tested: 50 nM)
8 | MYT12397 (antibody, V domains shown, datopotamab VL 89, 92 substituted) VH: QVQLVQSGAEVKKPGASVKVSCKASGYTFTTAGMQWVRQAPGQGLEWMGWINTHSGVPKYAEDFKGRVTISADTSTSTAYLQLSSLKSEDTAVYYCARSGFGSSYWYFDVWGQGTLVTVSS VL: DIQMTQSPSSLSASVGDRVTITCKASQDVSTAVAWYQQKPGKAPKLLIYSASYRYTGVPSRFSGSGSGTDFTLTISSLQPEDFAVYYCHQHHITPLTFGQGTKLEIK | no binding (tested: 50 nM)
9 | MYT12402 (antibody, V domains shown, datopotamab VL 28, 52, 92 substituted) VH: QVQLVQSGAEVKKPGASVKVSCKASGYTFTTAGMQWVRQAPGQGLEWMGWINTHSGVPKYAEDFKGRVTISADTSTSTAYLQLSSLKSEDTAVYYCARSGFGSSYWYFDVWGQGTLVTVSS VL: DIQMTQSPSSLSASVGDRVTITCKASQHVSTAVAWYQQKPGKAPKLLIYSAHYRYTGVPSRFSGSGSGTDFTLTISSLQPEDFAVYYCQQHHITPLTFGQGTKLEIK | no binding (tested: 50 nM)

These binders were tested against T2, Human TROP2 Protein, His Tag (Acro Biosystems) (human, UniProt P09758 27-274) (assay: BLI (Octet) [2/2]).
T2 construct: also called TACSTD2; not shown: His tag
T2 sequence (looked up): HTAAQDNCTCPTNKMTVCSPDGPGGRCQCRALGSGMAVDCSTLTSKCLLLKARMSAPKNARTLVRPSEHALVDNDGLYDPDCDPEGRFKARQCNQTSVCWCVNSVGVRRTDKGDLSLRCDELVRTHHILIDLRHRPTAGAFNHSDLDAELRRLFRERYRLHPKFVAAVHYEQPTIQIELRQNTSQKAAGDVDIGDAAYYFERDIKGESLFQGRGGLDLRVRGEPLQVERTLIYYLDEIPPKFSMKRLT

Row | Binder | binding result
10 | MYT13430 (antibody, V domains shown, Sacituzumab HC-LC pairing variant) VH: QVQLQQSGSELKKPGASVKVSCKASGYTFTNHGMNWVKQAPGQGLKWMGWINTYTGEPTYTDDFKGRFAFSLDTSVSTAYLQISSLKADDTAVYFCARGGFGSSYWYFDVWGQGSLVTVSS VL: DIQLTQSPSSLSASVGDRVSITCKASQDVSIAVAWYQQKPGKAPKLLIYSHSHRYTGVPDRFSGSGSGTDFTLTISSLQPEDFAVYYCQQHYHTPLTFGAGTKVEIK | binds
11 | MYT13423 (antibody, V domains shown, Sacituzumab HC-LC pairing variant) VH: QVQLQQSGSELKKPGASVKVSCKASGYTFTNYHMNWVKQAPGQGLKWMGWINTYTGEPTYTDDFKGRFAFSLDTSVSTAYLQISSLKADDTAVYFCARGGFGSSYWYFDVWGQGSLVTVSS VL: DIQLTQSPSSLSASVGDRVSITCKASQDVHIAVAWYQQKPGKAPKLLIYSHSYRYTGVPDRFSGSGSGTDFTLTISSLQPEDFAVYYCQQHYHTPLTFGAGTKVEIK | binds
12 | MYT13414 (antibody, V domains shown, Sacituzumab HC-LC pairing variant) VH: QVQLQQSGSELKKPGASVKVSCKASGYTFTNHGMNWVKQAPGQGLKWMGWINTYTGEPTYTDDFKGRFAFSLDTSVSTAYLQISSLKADDTAVYFCARGGFGSSYWYFDVWGQGSLVTVSS VL: DIQLTQSPSSLSASVGDRVSITCKASQDVHIAVAWYQQKPGKAPKLLIYSHSYRYTGVPDRFSGSGSGTDFTLTISSLQPEDFAVYYCHQHYITPLTFGAGTKVEIK | binds
13 | MYT13412 (antibody, V domains shown, Sacituzumab HC-LC pairing variant) VH: QVQLQQSGSELKKPGASVKVSCKASGYTFTNYGMNWVKQAPGQGLKWMGWINTYTGEPTYTDDFHGRFAFSLDTSVSTAYLQISSLKADDTAVYFCARGGFGSSYWYFDVWGQGSLVTVSS VL: DIQLTQSPSSLSASVGDRVSITCKASQDVSIAVAWYQQKPGKAPKLLIYSHHYRYTGVPDRFSGSGSGTDFTLTISSLQPEDFAVYYCQQHYITPLTFGAGTKVEIK | binds
14 | MYT13436 (antibody, V domains shown, Sacituzumab HC-LC pairing variant) VH: QVQLQQSGSELKKPGASVKVSCKASGYTFTNYGMNWVKQAPGQGLKWMGWINTYTGEPTYTDDFHGRFAFSLDTSVSTAYLQISSLKADDTAVYFCARGGFGSSYWYFDVWGQGSLVTVSS VL: DIQLTQSPSSLSASVGDRVSITCKASQDVSIAVAWYQQKPGKAPKLLIYSHSHRYTGVPDRFSGSGSGTDFTLTISSLQPEDFAVYYCQQHYHTPLTFGAGTKVEIK | binds
